Assay: yeast display, Sf9 membrane polyspecificity reagent, FACS + sequencing; frameworks hold sequencing errors
Summary of the method: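 After 36–48 hours of galactose induction, yeast (Saccharomyces cerevisiae BJ5465) displaying a synthetic nanobody library were stained at 4 °C for 1 hour with 10% biotinylated, detergent-solubilized Sf9 membrane reagent. Streptavidin microbeads enriched the stained cells before FACS sorting into low and high (top ~1%) gates on anti-HA and streptavidin fluorescence. Each clone's polyreactivity label reflects its gate of origin.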

Row | Sequence | polyreactivity (PSR sort gate)
1 | QVQLVESGGGLVQAGGSLRLSCAASGFTFTRYGMGWYRQSPGKERELVAGISSGGSTNYADSVKGRFTISRDNSKNTVYLQMNSLKPEDTAVYYCAAGFYSHGIELGYWGQGTQVTVSS | high polyreactivity
2 | EEELVESGGGLVQAGGSLRLSCSASGSTFLVYSMGWYRQAPGKERELVAVITNSTVRTYYADSVKGRFTISRDNAKNTVYLQMDRLKPEDTAVYYCNADKEFAVLGQGMDYWGQGTQVTVSS | low polyreactivity
3 | QVQLVESGGGLVQAGGSLRLSCAASGRIFDWNAVGWYRQAPGKERELVAAITWTGGTTYYADSVKGRFTISRDNAKNTVYLQMNSLKPEDTAVYYCAKRGGNQFAYRARSFDYWGQGTQVTLSS | low polyreactivity
4 | QVQLVDSGGGLVQAGGILRLSCAASGSTFRYYAMGWYRQAPGKERELVAAITKNGGSTYYADSVKGRFTISRDNAKNTVYLQMNSLKPEDTAVYYCAVQFSYSGWYYVSYYYWGQGTQVTVSS | high polyreactivity
5 | QVQLVESGGGLVQAGVSLRLSCAASGFIYDHNAMGWYRQAPGKERELVAAITRSGGSTYYAYSVKGRFTISRDNAKNTVYLQMNSLKQEDTAVYYCNADAYGTPEFTSYAVRYDYWGQGTQVTVSS | low polyreactivity
6 | QVQLVESGAGLVQAGGSLRLSCAASGSTFYINTMGLYRQAPGKEREFVAAITWSGGSTYYADSVKGRFTISRDNAKNSGYLQMNSLKPEDTAVYYSAADLYVGDMDYRGQGTQVTVSS | low polyreactivity
7 | QVQLVESGGGLVQAGGSLRLSCAASGNILRGYAMGWYRQAPGKERELVAAINRGGGSTYYADSVKGRFTISRDYAKNTVYFQMNSLKPEDTAVYYCAARYPHRGYTFDYWGQGTQVTVSS | low polyreactivity
8 | QVQLVESGGGLVQAGGSLRLSCAASGLTFLDYAMGWYRQAPGKERELVAAITSGGSTNYADSVKGRFTISRDNAKNTVYLQMNSLKPEDTAVYYCATDLEVSAYDYWGQGTQVTVSS | low polyreactivity
9 | QVQLVESGGGLVQAGGSLRLSCAASGGTFGKYTMGWSRQAPGKERELVAAINKSGGSTYYADSVKGRFTISRDNAKNTVYLQMNSLKPEDTAVYYCAAGTYFLSREYNYWGQGTQVTVSS | low polyreactivity
10 | QVQLVESGGGLLQAGGSLRLSCAASGIIFRGYSMGWYRPAPGKERELVASITRRGGSTRYADSVKGRFTISRDNAKNTVYLQMNSLKPEDTPVYYCAAVGVGKTSTAYGYWGQGTQVNVSS | high polyreactivity
11 | QVQLVESGGGLVQAGGSLRLSCAAAGTYKYYAMGWYRQAPGKERELVAASNRGGSTNYADSVKGRFTISRDNAKNTVYLQMNSLKPEDTAVYYCAAERWYVRGRHYFYWGQGTQVTVSS | high polyreactivity
12 | QVQLVESGGGLVQAGGSLRLSCAASGRIIGHNAMGWYRQAPGKERELVAAISSRGGSTFYADSVKGRFTISRDNAKNTVYLQKNSLKPEDTAVYYCNALGVGHSGFTKFSRYYYWGQGTQVTVSS | high polyreactivity
13 | QVQLVESGGGLVQAGGSLRLSCAASGFIFAWYAMGWYRQAPGKERELVASISVSDGSTYYADSVKGRFTISRDNAKNTVYLQMNSLKPEDTAVYYCAAEVSSDYYNSDYYWGQGTQVTVSS | low polyreactivity
14 | QVQLVESGGGLVQAGGSLRLSCAASGSTFYPYAMGWYRQAPGKERELVAAISYSGGSTYYADSVKGRFTISRDNAKNTVYLQMNSLKPEDSAVYYCAAYYRRQFTSYGNYYYWGQGTQVTLSS | high polyreactivity
15 | HVQLVESGGGLVQAGGSLRLSCAASGSTFGYNARGWYRQAPGKERELVAVITDSGGSTKYADSVKGRFTISRDNAKKTVYLQMNSLKPEDTAVYYCAKRSSQTRRAYDYWGQGTQVTVSS | low polyreactivity
16 | QVQLVESGGGLVQAGGSLRLSCAASGGTFSPYDMGWYRQAPGKERELVASITGSGGSTYYADSVKGRFTISRGNAKNTVYLQMNSLKPEDTAVYYCAAQGYWTYWPYLLRLYDYWGQGTQVTVSS | low polyreactivity
17 | QVQLVESGGGLVQAGGSLRLSCAASGYIFDPNAMGWYRQAPGKERELVAAISGSGTSTYYADSVKGRFTISRDNAKNTVYLQMNSLKPEDTAVYYCAAAHDAGPVRYYYWGHGTQVTVSS | low polyreactivity
18 | QVQLEETRGCLVQAGGSLRLSCAASGIILYAYAMGWYRQAPRKERELVAAITRRGGRTYYADSVKGRFTISRDNAKYTVYLQMNSLKPVDTAVYYGATVQSGRVRTYDYWGQGTLVTVSS | high polyreactivity
19 | QVQLVESGGGLVQAGGSLRLSCAASGIIFRYYAMGWYRQAPGKERELVAAISSSGVSTYYADSVKGRFTISRDNAKNNVYLQMNSLKPEDTAVYYCAAVTTWRMDYWGQGTQVNVSS | high polyreactivity
20 | QVQLGESGGGLVQAGGSLRLSCDASGTSNPYNAMGWYRQAPGKERELVATISTNDGSTYYADSVKGRFTISRDNEKNTVYLQMNSLKPDDTAVYYCASRGFARYWGQRTQVTVSS | low polyreactivity
21 | QVQLVESGGGLVQAGGSLRLSCAASGITFWTYAMGWYRQAPGKERELVAAISKSGGSTYYADSVKGRFTISRDNAKYNVYLQLKSLKPEDTAVYYCAAKGLRYRDIDYDYWGQGTQVTVSW | low polyreactivity
22 | QVQLVESGGGLVQAGGSLRLSCAASGRIFYLYAMGWYRQAPGKERELVAAISVSGARTYYADSVKGRFTISRDNAKNNVYLQMNSLKPEDTAVYYCATVGPYRSRRAGDYWGQGTQVTVSS | high polyreactivity

Row | Sequence | polyreactivity (PSR sort gate)
23 | QVQLVESGGGLVQAGGSLRLSCAASGLTFSRYAMGWYRQAPGKERELVAAITWSGSSTYYADSVKGRFTISRDNAKNTVYLQMNILKQEDTAVYYCAARYGYSRGPYYRSDYWGQGTQVTVSS | high polyreactivity
24 | QVQLVESGGGLVQAGGSLRLSCAASGRTFGSYAMGWYRQAPGKEREFVASISRRGGSTYYADSVKVRFTISRDNAKNTVYLQINSLKPEDTAVYYCAAGVPASWFDYWGQGTQVTVSS | high polyreactivity
25 | QVQLVESGGGLVKAGGSLRLSCAASGSTNDRYAMGLYRQAPGKEREFVAAITKRGGSTYYADSVKGRFTISRDNAKITVYLQMNSLKPEDTAVYYCGARYGRGSAYTEYEYWGQGTQVTVSS | high polyreactivity
26 | QVQLVESGGGLVQAGGSLRLTCSASGSTFYYYAMGWYRQAPGKERELVAAITISGGSTYYADSVKGRFTISRDKAKNTVYLQLNSLKPEDTAVYYCNVDDRETRDDYWGQGTQVTVSS | low polyreactivity
27 | QVQLVESGGRLVQAGGSLRLSCAASGSIIVYNTMGWYRQAPGKERELVAAITVRDDSTYYADSVKGRFTISRDNAKNTVYLQMNSLKPEDTAVYYCNARGNFLIGRDYWGQGTQVTVSS | low polyreactivity
28 | QVQLVESGGGLVQAGGSLRLSCAASGITLTKNAMGWYRQAPGKERELVAGITRGSRTNYADSVKGRFTISRDNAKNSVYLQMNSLIPEDTAVYYCAASYWPYRGPVGGSKMYFWGQGTQVTVSS | high polyreactivity
29 | QVQLVESGGGLVQAGGSLRLSCAASGSISDVYAMGSYRQAPGKETELVAAITSGASTYYADSVKGRFTISRDNAKNTVYLQMNSLKPEDTAVYYCAADSDSQWGMDYWGQGTQVTVSS | low polyreactivity
30 | QVQLVESGGGLVQAGGSLSLSCAASGSIFNRYTMGWYRQAPGKERELVADISKSGTRTYYADSVKGRFTISRDNAKNTVYLQMNSQKPEDTSVYYCAKSSVAVYQTRYDYWGQGTQVNVSS | high polyreactivity
31 | QVQLVESGGGLVQAGGSLRLSCAASGRIFGINSMGWYRQAPGKERELVAAITGGGSTYADSVKGRFTISRDNAKNTVYLQMNSLKPEDTAVYYCAAVSPRRYRYDYWGQGTQVTVSS | low polyreactivity
32 | QVQLVESGGGLVQAGGSLRLSCAASGSIFRSYAMGWYRQAPGKEREFVAAINSRSGSTYYADSVKGRFTISRDNAKNTVYFQINSLKPEDTAVYYWAVTYYTRGYGHMDYWGQGTQVTVSS | high polyreactivity
33 | QVQLVESGGGLVQAGVSLRLSCAASGRTFEDKAMGSDRQAPGKERELVAAISSDGSTNYADSVKGRFTISRDNAKYTVYLQKYSLKPVDTAVYYCNSTVYWPYDWSTSDYWGQGTQVTVSS | low polyreactivity
34 | QVQLVESGRGLVQAGGSLRLSCADSGRTFGYYGMGWYRQAPGKEREFVAAITRSGGSTYYADSVKGRFTISRDHAKNTVYLQMNSLKPEDTAVYYCAAAHLFTRSRPYDYWGQGTQVTVSS | high polyreactivity
35 | QVQLVESGGGLVQAGGSLRLSCAASGSPFFRNAMGWYRPAPGTERELVADISASGGSTYYADSVKGRFTLSRDNAKNTVNLQMNSLKPEDTAVYSCNALYIYSYNYLTMDYWGQGTQVTVSS | low polyreactivity
36 | QVQLVESGGGLVQAGGSLRLSCAASGRTIEYNAMGWYRQAPGKEREFVAAITYSGGGTYYADSVKGRFTISRDNAKNTVYLQMNSLKPEDTAVYYCARERTRVHKHYYWGQGTQVTVSS | low polyreactivity
37 | QVQLVESGGGLVQAGGSLLLSCAASGFTFGSYAMGLYRQAPGKERELVARITRGGNTYYADSVKGRFTISRDNAKNTVYLQMNSLKPVDTAVYYCNAYGRVSPLYQPYGNDAQGYYWGQGTQVTVSS | high polyreactivity
38 | QVQLVESGGGLVQAGGSLRLSCAASGRIFPSNVMGWYRQAPGKERELVASISARGGSTYYADSVKGRFTISRDNAKNTGYLQMNSLKPEDTAVYYCHKRRSNGYSQHKLDYWGQGTQVTVSS | low polyreactivity
39 | QVQLVESGGGLVQAGGSLRLSCAASGSIFLTYTMGWYRQAPGKERELVAGISSRGGGTYYADSVKGRFTISRDNAKNTVYLQMNSLKPEDTAVYYCAAAIGYPHYWGRRKFYYWGQGTQVTVSS | low polyreactivity
40 | QVQLVESGGGLVQAGGSLRLSCAASGFTFRDYAMGWYRQAPGKERELVAAITRRGGNTYYADSVKGRFTISRDNAKNTVYLQMNSLKPEDTAVYYCAARALSGHYDYWGQGTQVTVSS | high polyreactivity
41 | QVQLVESGGCLVQAGGSLRLSCAASGSTFYLNAMGWYRQAPGKEREMVAAITVSGGSTYYADSVKGRFTISRDNAKNTVYLQMNSLKPVDTAVYFCSRELLCPTYQRWYYYWGLGTQVTVSS | low polyreactivity
42 | QVQLGESGGGLVQAGGSLRLSCAASGSILRTYTMGWYRPAPGKERELVAAISSSGGRTYYADSVKGRFTISRDNAKNTVYLQMNSLKPEDTAVYYCNAGGYRYRSYDYWGQGTQVTVSS | high polyreactivity
43 | QVQLVESGGGLVQAGGSLRLSCAASGITFYDNAMGWYRPAPGKERELVAGISYDGDSTYADSVKGRFTISRDNAKNTVYLQMNSLKPEDTAVYYCAALGPYDWLWAGDYWGQGTQVTVSS | low polyreactivity
